From patent publication US20040106557A1

Target: Prostate specific antigen (PSA), purified from human seminal fluid (human) (UniProt P07288)
Assay: gel filtration peak of ~30 kD after thrombin cleavage, GST-peptide IFMA on PSA captured by MAb 5E4

“~30 kD component of thrombin-cleaved GST-C-4 (from UniProt P08515 1-218)” showed a Binding activity (% of total), remaining after thrombin-treatment of 5.2%.
